Source: article doi:10.1101/2024.05.31.596867

Biological target: de-glycosylated KEN SVMP PIII (PNGase F treated under native conditions) (Bitis arietans (puff adder, Kenya))
Assay: gelatin zymogram

“de-glycosylated KEN SVMP PIII (PNGase F treated under native conditions) (enzyme)” was tested, and the stoichiometry N was 2.
